Reference: the nanobody polyreactivity screen of Harvey et al. (2022)

Assay: yeast display, Sf9 membrane polyspecificity reagent, FACS + sequencing; frameworks hold sequencing errors
How it was run: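 In a synthetic yeast display library (Saccharomyces cerevisiae BJ5465), nanobody expression was induced with galactose for 36–48 hours. FACS gates were set low and high (top ~1%) using anti-HA fluorescence for expression and streptavidin fluorescence for binding of the Sf9 membrane reagent. Each polyreactivity label is drawn from the gate of origin.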

Row | Sequence | polyreactivity (PSR sort gate)
1 | QVQLVESGGGLVQAGGSLRLSCAASGITFYDYAMGWYRQAPGKERELVAVITRRGGSTYYADSVKGRFTISRDNAKNTVYIQMNSLKPEDTAVYYCAADWRVWSFVRGVDYWGQGTQVTVSS | high polyreactivity
2 | QVQLVESGGGLVQAGGSLRLSCAASGTIFFPNAMGWYREAPGKERELVAAISWSGDSTYADSVKGRFTISRDNAKNTVYLQMNSLKPQDTAVYYCAAVYLWWSYEFDYWGQGTQVTVSS | low polyreactivity
3 | QVQLVESGGGLVQAGGSLRLSCAASGLSLGVYTLGWYRQAPGKEREFVASINYGGGSTYYADSVKGRFTISRDNAKNTVYLQMNSLKPEDTAVYYCNARSRWGGTRLYSYDYWGQGTQVTVSS | low polyreactivity
4 | QVQLVESGGGLVQAGGSLRLSCAASGSTMGRYAMGWYRQAPGKERELVASITWSDDSTYYADSVKGRFTISRDNAKNTVYLQMNSLKPEDTAVYYCAAAGNLYTYRFYYWGQGTQVTVSS | low polyreactivity
5 | QVQLVESAGGLVQAGGSLRLTCAASGRTFTFNTMGWYRQAPGKERELVAAIDGDGTTNYADSVKGRFTISRDNAKNTVYLQMNSLKPEDTAVYYCAADFLYSFWYEPTFDYWGQGTQVTVSS | low polyreactivity
6 | QVQLVESGGGLVQAGGSLRLSCAASGFIFQKYAMGWYRQAPGKERELVAAITKRGGSTYYADSVKGRFTISRDNAKNTVYLQMNSLKPEDTAVYYCAAYAYDYEYDYWGQGTQVTVSS | high polyreactivity
7 | QVQLVESGGGLVQAGGSLRLSCAASGRTIKYYAMGWYRQAPGKERQLVAVISWSGGRTYYADSVKGRFTISRDNAKNTVYLQMNSLKPEDTAVYYCNAVYPYYYLLKRYKEGYWGLGTQVTVSS | high polyreactivity
8 | KVQLVESGRGLVQAGGSLLLICAASGSTFVDYAMGWYRQAPGKERELVAGINVSGGSTYYSDYVKGSFTISRDNSNNPVYLQMNSLNPEDTAVYYCAKVVSNRLALPAWDYNYWGQGTKVTVSS | low polyreactivity
9 | QVQLEESVGGLVQAGGSLRLSCAASGRTFGRYAMGWYRQAPGKERELVAGISRSGDSTHYADSVKGRFTISRDNAKKTVYLQMNSLKPEDTAVYYCNKETPTIGARKYEDWGQGTQVTVSS | low polyreactivity
10 | QVQLVESGGGLVQAGGSLRLSCAASGSISVDNTMGWYRQAPGKERELVAAISRSGGTTYYADSVKGRFTISRDNAKNTVYLQMNSLKPEDTAVYYCAKDTLRYRWRSYDYYPEMNYWGQGTQVTVSS | low polyreactivity
11 | QVQLVESGGGLVQAGGSLRLSWAASGLTFETYVMGWYRQAPGKERELVAAISSSGRTYYADSVKGRFTISRDNAKNTVYLQMNSLKPEDTAVYYCAARGREFGYWGQGTQVTVSS | high polyreactivity
12 | QVQLVESGGGLVQAGGSHRLICAASGSTFNFNVMGWYRQEPGKERELDAAISSSGGNTYYADSVKGRFTISRDNAKNTVYLQMNSLKPEDTAVYYCADEYEEWYSVFLYDYWGQGTQVTVSS | high polyreactivity
13 | QVQLVESGGGLVQAGGSLRLSCAASGSNFLDNAMGWYRQAPGKERELVAAITSSGGSTYYADSVKGRFTISRDNAKNTVYLQMNSLKPEDTAVYYCAADEWIVHEGYYSSYYYWGQGTQVTVSS | low polyreactivity
14 | QVQLEESAGGIVQAGGSLRLSCAGSGSTVSVYAMGWYRQAPGKEWELVARIRWSSGITYYADSVNGRFTISRDNAKNTVYLQLNSVKPEDTAVYYCNAQYRRAYLWFLYDYWGQGTQVTVSS | high polyreactivity
15 | QVQLVESGGGLVQEGGSLRLSCAASGRTLHKNVMGWYRQAPGKERELVAAINTGGRTYYADSVKGRFTISRDNAKHTVYLQMNSLKPEDTAVYYCAKEGHVNPRPTVGGDYWGHGTQVTVSS | low polyreactivity
16 | QVQLVESGGGLVQAGGSLRLSCAASGSISFYAMGWYRQAPGKERELVAAITTSGGRTYYADSVKGRFTISRDNAKNTVYLQMNSLKPEDTAVYYCNVASKGRYARYAAEYGSWGQGTQVTVSS | high polyreactivity
17 | QVQLVESGGGLVQAGGSLRLSCAASGRTFWIYTMGWYRQAPGKEREFVAAISIRGGSTYYADSVKGRFTISRDNAKNTVYLQMNSLKPEDTAVYYCAADGGYSLWADDDYWGQGTQVTVSS | low polyreactivity
18 | QVQLVESGGGLVQAGGSLRLSCAASGIIFRGNAMGWYRQAPGKERELVAGISSRGGSTYYADSVKGRFTISRDNAKNTVYLQMNSLKPEDTAVYYCAAQYRSYLSGYGYWGQGTQVTVSS | high polyreactivity
19 | QFQLVESGGGLVQAGGSLRLSCAASGFTFIKYAMGWYRQAPGKEREFVATISWNGGNTYYADSVKGRFTISRDNAKNTVYLQMNSLKPEDTAVYYCAARRRAFGSTYNYWGQGTQVTVSS | high polyreactivity
20 | QVQLVESGGGLVQAGGSLRLSCAASGRIFQTYAMGWYRQAPGKERELVAAISSRGRTYYADSVKGRFTISRDNAKNTVYLQMNSLKPGDTAVYYCAARDWSHRPRGYDYWGQGTKVTVSS | high polyreactivity
21 | QVQLVESGGGLVQAGGTLLLSGAASGSIFGYNAMGWYRQAPGKERELVAAIRSSDSRTHYADSVKGRFRISRDNAKNTVYLQMNSLKPEDTAVYYCAAVKRRPGHYLYDYWGQGTQVTVSS | low polyreactivity
22 | QVQLVESGGGIVQAGGSLRLSCAASGSTFYRYVMGWYRQAPGKERELVAAISWSGGSTYYADSVKGRFTISRDNAKNTVYLQMNSLKPEDTAVYYCAAVHKVGWSRHYDYWGQGTQVTVSS | high polyreactivity

Row | Sequence | polyreactivity (PSR sort gate)
23 | QVQLVESGGGLVQAGGSLRISCAASGRIFFIKAMGWYRQAPGKERELVAAIRRDTRTYYADSVKGRFTISRDNAKNTVYLQMNSLKPEDTAVYYCAADDPWHYDFDYWGQGTQVTVSS | low polyreactivity
24 | QVQLVESGGGLVQAGGSLRLSCAASGFIFDSYAMGWYRQAPGKERELVAAISYSGGNTYYADSVKGRFTISRDNAKNTVYLQMNSLKPEDTAVYYCAAEWSDSRWWRLWWYGEDDYWGQGTQVTVSS | high polyreactivity
25 | QVQLVESGGGLVQAGGSLRLSCAASGSIFSYYAMGWSRQAPGKERELVAAISWGDDSTYYADSVKGRFTISRDNAKNTVYLQMNSLKPEDTAVYYCAADRVGWYRTFDYWGQGTQVTVSS | low polyreactivity
26 | QVQLVESGGGLVQAGGSLRLSCAASGRIFRVNAMGWYRQAPGKERELVATITGSGGSTYYADSVKGRFTISRDNAKNTVHLQMNSLKPEDTAVYYCAVDRGRGSTYKYDYWGQGTQVTVSS | low polyreactivity
27 | QVQLVESGGGLVQAGGSLRLSCAASGRTFVGYAMGWYRQAPGKEREFVAAISYRGGRTYYADSVKGRFTISRDNAKNTVYLQMNSLKPEDTAVYYCAAEYRSNHGGVDYWGQGTQVTVSS | high polyreactivity
28 | QVQLVESGGGLVQAGGSLRLSCAASGLTFSLNAMGWYRPAPGKERELVAAIRGSGGSTYYADSVKGRFTISRDNAKNTVYLQMNSLKPEDTAVYYCAASPKRVLRESGVYWGQGTQVTVSS | high polyreactivity
29 | QVQLVESGGGLVQAGGSLRLICAASGIIFTGYTMGWYRPAPGKERELVAAITWRGGSTYYADSVKGRFTISRDNAKNTVYLQMNSLKPEDTAVYYCAAEGWYSWDDDYWGQGTQVTVSS | low polyreactivity
30 | QVQLVESGGGLVQAGGSPRLSCAASGRTFVFKAMGWYRQAPAKERELVAAITDTTGSTYYADSVKGRFTISRDNAKNTVYLQMNSLKPEDTAVYYCNARVYRPFYYWGQGTQVTVSS | low polyreactivity
31 | QVQLVESGGGLVQAGGSLRLSSAASGSIIKYYAMGWYRQAPGKERELVAAINKSGGTTYYADSVKGRFTISRDNAQNPVYLQMNSLKPEDTAVYYCATDNTVVYQPGNMDFWGQGTQVTVSS | low polyreactivity
32 | QVQLVESGGGLVQAGGSLRLSCAASGRIFGINVMGWYRQAPGKERELVARITGRGGRTYYADSVKGRFTISRDNAKNTVYLQINSLKPEDTAFYYCAADARYEAYDYWGQGTQVTVSS | high polyreactivity
33 | QVQLVESGGGLVQAGGSLRLSCAASGSIIHTNTMGWYRQAPGKERELVAAISGGSTYYADSVKGRFTISRDNAKNTVYLQMNSLKPEDTAVYYCAAGWSVWYQDFDYWGQGSQVTVSS | high polyreactivity
34 | QVQLVESGVGLVQAGGSHPLSCAASGSTLRYAMGWNRQAPGKETELVAAISRTGGSTYYADSVKGRFTISRDNAKNTVYLQMNSLKPEDPAVYYCAARYFTSYPLYYYWGQGTQVTVSS | high polyreactivity
35 | QVQLVESGGGLVQAGGSLRLSCAASGSTFAGYAMGWYRQAPGKERELVAAISKRGTSTYYADSVKGRFTISRDNAKNTVYLQMNSLKPEDTAVYYCAARTYASYFKLYYWGQGTQVTVSS | high polyreactivity
36 | QVQLVESGGGLVQAGGSLRLSCAASGFTFSTYTMGWYRQAPGKERELVARITWSGTRTYYADSVKGRFTISRDNAKNTVYLQMNSLKPEDTAVYYCNAGPYARYYWGQGTQVTVSS | high polyreactivity
37 | QVQLVESGGGLVQAGGSLRLSCAASGNTFTYYAMGWYRQAPGKERELVAAINIDVASTYYADSVKGRFTISRDIAKNTVYLQMNSLKPEDTAVYYCAAEVGVYPVYWYDYWGQGTQVTVSS | low polyreactivity
38 | QVQLVESGGGLVQAGGSLRLSCAASGSIFEYYTMGWYRQAPGKERELVATISRSADRTYYADSVKGRFTISRDNAKNTVYLQMNSLKPEDTAVDYCAKRYPRTTQWIYDYWGQGTQVTVSS | high polyreactivity
39 | QVQLVESGGGLVQAGGSLRLSCAASGFTFAYYAMGWYRQAPGKERELVATITSGGRTYYADSVKGRFTISSDNAKNTVYLQMNSLKPEDTAVYYCAATGRSGVLSSYYYWGQGTQVTVSS | high polyreactivity
40 | QVKLVESGGGLVQAGGSLRLSSAASGSTFDSNAMGWYRQEPGKERELVAAITRGGSTNYADSVKGRFTISRDNAKNTVYLQMNSLKPEDTAVYYCAAASETLGYATYGSGYDYWGQGTQVTVSS | low polyreactivity
41 | QVQLVESGGGLVQAGGSLRLSCASSGGTFGSYAMGWYRHAPGKERELVAAIRSGDRTYYADSVKGRFTISRDNAKNTVYLQMNSLKPEDTAVYYCAAFYHHYYRYDYWGQGTQVTVSS | low polyreactivity
42 | QVQLVESGGGLVQAGGSLRLSCAASGSTFRANAMGWYRQAPGTERELVAVISSGGRTYYADSVKGRFTMSRDNAKTTVYLQMNSLKPEDTAVYYCAKDDYSVWYYYDYDYWGQGTQVTVSS | high polyreactivity
43 | QVQLVESAGGLVQAGGSLRLSCAASGIIFDDNAKGWYRQAPGKERELVAAISGRGGSTYYADSVKGRFTISRDNAKNTVYLQMNSLKPEDTAVYYCAASTVRRGTAPYSGGGDYWGQGTQVTVSS | high polyreactivity
